As a reminder, the Kd is the equilibrium constant for the complex coming apart.

Consider 3 molecules from US20220204640A1 (Genentech, published 2022).

Test [1] deals with T1, TAT211 polypeptide on the surface of cells (human, UniProt O95436 1-690).
T1 construct: Expressed endogenously (OVCAR-3, OVCAR4, Igrov1, P828, P701sc20) or recombinantly (293/TAT211) on the cell surface
T1 sequence: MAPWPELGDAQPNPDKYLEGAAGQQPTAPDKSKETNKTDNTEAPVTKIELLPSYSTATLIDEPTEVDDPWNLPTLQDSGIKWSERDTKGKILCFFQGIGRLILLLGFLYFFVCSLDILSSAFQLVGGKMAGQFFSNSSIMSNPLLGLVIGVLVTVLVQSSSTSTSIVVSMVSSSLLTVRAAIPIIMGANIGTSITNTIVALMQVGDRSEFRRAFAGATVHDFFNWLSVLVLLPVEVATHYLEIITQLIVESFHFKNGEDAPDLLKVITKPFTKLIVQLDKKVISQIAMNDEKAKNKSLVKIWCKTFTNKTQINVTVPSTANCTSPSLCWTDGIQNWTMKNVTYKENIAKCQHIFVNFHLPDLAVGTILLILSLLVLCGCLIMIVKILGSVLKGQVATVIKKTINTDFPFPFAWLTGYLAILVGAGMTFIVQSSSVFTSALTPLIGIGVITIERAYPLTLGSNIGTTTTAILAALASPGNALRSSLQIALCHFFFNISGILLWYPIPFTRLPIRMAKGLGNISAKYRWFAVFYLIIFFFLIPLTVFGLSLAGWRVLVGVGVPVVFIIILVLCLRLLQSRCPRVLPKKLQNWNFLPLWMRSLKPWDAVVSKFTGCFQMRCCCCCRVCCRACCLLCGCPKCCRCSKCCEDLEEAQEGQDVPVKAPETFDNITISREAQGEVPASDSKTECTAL
Description: Scatchard analysis on cells, IgG.

Test [2] has as its target T2, CHO derived TAT211 extracellular domain (glycosylated, immunoadhesin / Fc fusion) (human, UniProt O95436 234-362, glycosylated (CHO)).
T2 construct: not shown: Fc part of the immunoadhesin
T2 sequence: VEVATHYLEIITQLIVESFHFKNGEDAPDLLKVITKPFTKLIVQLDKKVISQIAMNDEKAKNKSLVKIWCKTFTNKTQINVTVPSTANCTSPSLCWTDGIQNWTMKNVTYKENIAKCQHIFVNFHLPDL
Description: surface plasmon resonance for the Fab, compared with mu10H1. In general terms: SPR reads the build-up and loss of mass on a sensor chip optically.

The target in test [3] is T2, CHO derived TAT211 extracellular domain …. Briefly: surface plasmon resonance (Biacore), TAT211 extracellular domain immobilized.
Description: TAT211 extracellular domain (glycosylated) was immobilized (approximately 100-400 RU, in 10 mM Sodium Acetate pH 4.8 on a CM5 sensor chip) and the 10H1 antibody variant served as the analyte (injected at a flow rate of 30 μL/min, using a 2-fold serial dilution of 4 to 1000 nM in PBST). Each sample was analyzed with 4-minute association and 10-minute disassociation. After each injection the chip was regenerated using 10 mM Glycine pH 1.7.
Test [4] addresses T1, TAT211 polypeptide on the surface of …. Briefly: Scatchard analysis on Igrov1 cells expressing TAT211; Igrov1 cells.
Test [5] has the same target. Description: Scatchard analysis on OVCAR4 cells expressing TAT211; OVCAR4 cells.
Test [6] shares this target. Briefly: Scatchard analysis on P828 cells expressing TAT211; P828 cells.
Test [7] shares this target. Description: Scatchard analysis on P701sc20 cells expressing TAT211; P701sc20 cells.

B1: humanized anti-TAT211 antibody 10H1.11.4B (IgG) (antibody, V domains shown)
VH: EVQLVESGGGLVQPGGSLRLSCAASGFSFSDFAMSWVRQAPGKGLEWVATIGRVAFHTYYPDSMKGRFTISRDNSKNTLYLQMNSLRAEDTAVYYCARHRGFDVGHFDFWGQGTLVTVSS
VL: DIQMTQSPSSLSASVGDRVTITCRSSETLVHSSGNTYLEWYQQKPGKAPKLLIYRVSNRFSGVPSRFSGSGSGTDFTLTISSLQPEDFATYYCFQGSFNPLTFGQGTKVEIKR
With B1, the binding result in test [1] is on record as “binds”.

B2: 10H1-graft as a Fab (Fab, V domains shown)
VH: EVQLVESGGGLVQPGGSLRLSCAASGFSFSDFAMSWVRQAPGKGLEWVATIGRVASHTYYPDSMKGRFTISRDNSKNTLYLQMNSLRAEDTAVYYCVRHRGFDVGHFDFWGQGTLVTVSS
VL: DIQMTQSPSSLSASVGDRVTITCRSSETLVHSNGNTYLEWYQQKPGKAPKLLIYRVSNRFSGVPSRFSGSGSGTDFTLTISSLQPEDFATYYCFQGSHNPLTFGQGTKVEIKR
notes: Fab expressed in E. coli from the phage display vector; also called 10H1 anti-TAT211 grafted humanized antibody
As for B2, the “fold loss of affinity relative to the mu10H1 hybridoma antibody” value in test [2] is about 2 fold. Besides, binding in test [3] was put at a Kd of 74 nM.

B3: murine monoclonal antibody 10H1 (antibody, V domains shown)
VH: EVMLVESGGGLVRPGGSLKVSCAASGFSFSDFAMSWVRRTPDKRLEWVATIGRVASHTYYPDSMKGRFTISRDNAKNTLYLQMNSLRSDDTAIYYCVRHRGFDVGHFDFWGQGTLLTVSA
VL: DILMTQTPLSLPVSLGDQASISCRSSETLVHSNGNTYLEWYLQKLGQPPKLLIYRVSNRFSGVPDRFSGSGSGTDFTLKISRLEAEDLGVYYCFQGSHNPLTFGAGTKVEIKR
notes: Murine hybridoma IgG; also called mu10H1; murine 10H1
B3: the Kd in test [4] worked out at 61 nM; in test [5], 37 nM; in test [6], 36 nM; in test [7], 59 nM.
